One test deals with 3Q βarr1 (Homo sapiens, UniProt P49407, C125S/C140L/C150V/C242V/C251V/C269S/C59V/K232Q/K250Q/R236Q). The test can be described thus: Fluorescence polarization binding of BODIPY-PIP2 to 3Q βarr1. As to conditions: FP with a BODIPY-derivative of PIP2. (In general: In fluorescence polarisation assays a small probe gives low polarisation when free and higher when bound to something large.)

The target of a further test is βarr1 (Homo sapiens, UniProt P49407, A12C/C125S/C140L/C150V/C242V/C251V/C269S/C59V/V387C). The test can be described thus: smFRET imaging of surface-tethered βarr1–12-387-AF488-AT647N C-tail sensor. It counts as biochemical. The conditions noted are these: parent sensor, 100 μM PIP2.
Test [1] deals with βarr1–12-387-AF488-AT647N (cysteine-free human β-arrestin 1 C-tail sensor with cysteines at positions 12 and 387) (human) (UniProt P49407). The test can be described thus: single-molecule FRET.
The target is the same in test [2]. The test can be described thus: single-molecule FRET. This is another data set of the same source.
Test [3] concerns the target 3A βarr1 (F388A/V387C/I386A triple mutant of the βarr1–12-387 C-tail sensor) (human) (UniProt P49407). Kind of test: single-molecule FRET.
Test [4] deals with βarr1–12-398-AF488-AT647 (human) (UniProt P49407).
Test [5] concerns the target βarr1–12-387-AF488-AT647N (cysteine-free human β-arrestin 1 C-tail sensor with cysteines at positions 12 and 387) (human) (UniProt P49407). The test can be described thus: other fluorescence titration.

Where no end group is shown, it is not given here. [ ]: non-standard residue; d: D form. pT = C[C@@H](OP(=O)(O)O)[C@H](N)C(=O)O; pS = N[C@@H](COP(=O)(O)O)C(=O)O

As to “phosphatidylinositol 4,5-bisphosphate [PIP2]”, the “binding of PIP2 to βarr1 3Q” value on 3Q βarr1 is reported as “essentially lost binding”. Besides, at βarr1, the “mid-FRET dwell time representing the PIP2-bound state” value is reported as approximately 2 s.
As for ARGR[pT]PP[pS]LGPQDE[pS]C[pT][pT]A[pS][pS][pS]LAKDTSS, the concentration giving a half-maximal response (EC50) (commonly the midpoint of the concentration-response curve) in test [1] came out at 11.6 µM; in test [2], 11.8 µM; in test [3], 0.4 µM; in test [4] it was 0.75 µM; in test [5], 1.5 µM.
For ARGRTPPSLGPQDESCT[pT]A[pS][pS][pS]LAKDTSS [P56, V2Rpp-derived phosphopeptide lacking four N-terminal phosphorylation sites], the EC50 in test [5] worked out at 30 µM. This lies in the double-digit micromolar range.

These data come from paper PMC12157425 (bioRxiv, 2025).
